Among the data in the supplement of paper PMC9233669 are self-aminoacylation values, retold here.

The subject of one series is biotinyl-Val-oxazolone. As to the kind of experiment: self-aminoacylation, catalytic enhancement (BVO) (fold over background); higher = more active; k-Seq, kA / k0A0; sequences stand for … in GGGAAUGGAUCCACAUCUACGAAUUC…UUCACUGCAGACUUGACGAAGCUG
The gist of the method:
(§1)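 The uncatalyzed rate is the low-activity peak of a bimodal Gaussian fit, and catalytic enhancement is median kA divided by it. The kA values came from pseudo-first-order fits, with 1000 bootstraps, of per-sequence fraction reacted measured by streptavidin capture, triplicate qPCR and Illumina sequencing. Mutagenized RNA pools with a 21-nt variable region (0.43 μM) were reacted with each biotinyl-aminoacyl-oxazolone at 2–1250 μM in 50 μL HEPES/NaCl/KCl/MgCl2/CaCl2 buffer with 5% acetonitrile, pH 6.9–7.0, for 90 minutes at room temperature.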

A further series relates to biotinyl-Ile-oxazolone. As to the kind of experiment: self-aminoacylation, catalytic enhancement (BIO) (fold over background); higher = more active; k-Seq, kA / k0A0; sequences stand for … in GGGAAUGGAUCCACAUCUACGAAUUC…UUCACUGCAGACUUGACGAAGCUG
The gist of the method: as §1

The next series has as its system biotinyl-Leu-oxazolone. As to the kind of experiment: self-aminoacylation, catalytic enhancement (BLO) (fold over background); higher = more active; k-Seq, kA / k0A0; sequences stand for … in GGGAAUGGAUCCACAUCUACGAAUUC…UUCACUGCAGACUUGACGAAGCUG
The gist of the method: as §1

The next series has as its system biotinyl-Phe-oxazolone. As to the kind of experiment: self-aminoacylation, catalytic enhancement (BFO) (fold over background); higher = more active; k-Seq, kA / k0A0; sequences stand for … in GGGAAUGGAUCCACAUCUACGAAUUC…UUCACUGCAGACUUGACGAAGCUG
The gist of the method: as §1

A further series deals with biotinyl-Trp-oxazolone. Description: self-aminoacylation, catalytic enhancement (BWO) (fold over background); higher = more active; k-Seq, kA / k0A0; sequences stand for … in GGGAAUGGAUCCACAUCUACGAAUUC…UUCACUGCAGACUUGACGAAGCUG
The gist of the method:
as §1

The next series concerns biotinyl-Met-oxazolone. As to the kind of experiment: self-aminoacylation, catalytic enhancement (BMO) (fold over background); higher = more active; k-Seq, kA / k0A0; sequences stand for … in GGGAAUGGAUCCACAUCUACGAAUUC…UUCACUGCAGACUUGACGAAGCUG
The gist of the method:
as §1

Variants at the floor of the assay were thinned out.

As to “CUACUUCAACCAAUCAGUCUG [Fam1A.1 aminoacylation ribozyme variant]”, the self-aminoacylation worked out at 0.701 in the series with biotinyl-Val-oxazolone; 0.747 in the series on biotinyl-Ile-oxazolone; 0.794 in the series on biotinyl-Leu-oxazolone; 13.9 in the series with biotinyl-Phe-oxazolone; 5.54 with biotinyl-Trp-oxazolone; 0.541 with biotinyl-Met-oxazolone.

For “AAUACCCUGGUCAUCCAGUGA [Fam2.1 aminoacylation ribozyme variant]”, the self-aminoacylation came to 2.88 in the series on biotinyl-Val-oxazolone; 3.01 with biotinyl-Ile-oxazolone; 4.96 with biotinyl-Leu-oxazolone; 10.6 in the series on biotinyl-Phe-oxazolone; 5.84 in the series on biotinyl-Trp-oxazolone; 5.25 with biotinyl-Met-oxazolone.

As for “AUUCACGUAGGUCCUCGGGUG [Fam2.2 aminoacylation ribozyme variant]”, the self-aminoacylation in the series on biotinyl-Val-oxazolone was determined as 5.83; in the series on biotinyl-Ile-oxazolone it was 5.5; in the series with biotinyl-Leu-oxazolone it was 12.1; in the series on biotinyl-Phe-oxazolone it was 64.9; with biotinyl-Trp-oxazolone it was 8.52; in the series on biotinyl-Met-oxazolone, 9.66.

For the sequence “AAGUUUGCUAAUAGUCGCAAG [Fam3.1 aminoacylation ribozyme variant]”, the self-aminoacylation with biotinyl-Val-oxazolone stood at 1.15; in the series with biotinyl-Ile-oxazolone, 1.33; in the series on biotinyl-Leu-oxazolone, 1.01; in the series with biotinyl-Phe-oxazolone, 32; in the series with biotinyl-Trp-oxazolone it was 7.99; in the series on biotinyl-Met-oxazolone, 1.47.

With “AUCCACCUAGGUCAUUGGGUG [Fam2.2 aminoacylation ribozyme variant]”, the self-aminoacylation turned out to be 3.24 in the series with biotinyl-Val-oxazolone; 3.51 in the series with biotinyl-Ile-oxazolone; 3.86 with biotinyl-Leu-oxazolone; 24.6 in the series with biotinyl-Phe-oxazolone; 3.8 in the series on biotinyl-Trp-oxazolone; 3.76 in the series on biotinyl-Met-oxazolone.

Turning to “AAGUUUGCUAACAGUCACAAG [Fam3.1 aminoacylation ribozyme variant]”, the self-aminoacylation in the series with biotinyl-Val-oxazolone came to 0.942; in the series with biotinyl-Ile-oxazolone, 0.92; in the series on biotinyl-Leu-oxazolone, 1.12; in the series on biotinyl-Phe-oxazolone, 2.73; in the series with biotinyl-Trp-oxazolone it was 1.06; with biotinyl-Met-oxazolone, 1.04.

“CUACGUCAAACAAACGGUCUG [Fam1A.1 aminoacylation ribozyme variant]”: the self-aminoacylation stood at 1.03 in the series on biotinyl-Val-oxazolone; 1.06 in the series on biotinyl-Ile-oxazolone; 1.16 in the series with biotinyl-Leu-oxazolone; 0.89 in the series on biotinyl-Phe-oxazolone; 0.904 in the series with biotinyl-Trp-oxazolone; 1.08 in the series on biotinyl-Met-oxazolone.

“CUAGUACAAACAAUCGGUCUG [Fam1A.1 aminoacylation ribozyme variant]”: the self-aminoacylation in the series with biotinyl-Val-oxazolone is 0.775; in the series on biotinyl-Ile-oxazolone, 0.837; in the series on biotinyl-Leu-oxazolone, 0.802; with biotinyl-Phe-oxazolone it was 0.781; in the series with biotinyl-Trp-oxazolone, 0.572; with biotinyl-Met-oxazolone, 0.725.

Regarding “AUUCUCCUAGGUCAUCCGGUG [Fam2.2 aminoacylation ribozyme variant]”, the self-aminoacylation in the series on biotinyl-Val-oxazolone is 6.42; in the series on biotinyl-Ile-oxazolone it was 6.71; with biotinyl-Leu-oxazolone, 12.2; in the series with biotinyl-Phe-oxazolone, 65.5; in the series with biotinyl-Trp-oxazolone, 9.8; with biotinyl-Met-oxazolone, 9.16.

Turning to “AUUGCCCUGGUCAUCGAGUGU [Fam2.1 aminoacylation ribozyme variant]”, the self-aminoacylation was determined as 23.4 in the series with biotinyl-Val-oxazolone; 18.4 with biotinyl-Ile-oxazolone; 62.2 in the series on biotinyl-Leu-oxazolone; 448 in the series with biotinyl-Phe-oxazolone; 65.7 in the series with biotinyl-Trp-oxazolone; 64.6 in the series on biotinyl-Met-oxazolone.

For the sequence “CCACCCUUCAGGCAAUCGGUC [Fam1B.1 aminoacylation ribozyme variant]”, the self-aminoacylation in the series on biotinyl-Val-oxazolone came to 2.12; with biotinyl-Ile-oxazolone, 1.71; with biotinyl-Leu-oxazolone, 1.55; in the series with biotinyl-Phe-oxazolone, 1.82; in the series on biotinyl-Trp-oxazolone it was 1.71; with biotinyl-Met-oxazolone it was 1.57.

For the sequence “AAGUUUGCUAUUAGUCGCUAG [Fam3.1 aminoacylation ribozyme variant]”, the self-aminoacylation in the series with biotinyl-Val-oxazolone was found to be 0.85; in the series with biotinyl-Ile-oxazolone, 0.864; in the series on biotinyl-Leu-oxazolone, 0.815; in the series with biotinyl-Phe-oxazolone, 1.16; in the series with biotinyl-Trp-oxazolone, 0.805; with biotinyl-Met-oxazolone, 1.01.

With “CCACACUUCAUGCAAUCGGUU [Fam1B.1 aminoacylation ribozyme variant]”, the self-aminoacylation in the series on biotinyl-Val-oxazolone is 1.26; in the series on biotinyl-Ile-oxazolone, 1.2; with biotinyl-Leu-oxazolone, 1.37; in the series with biotinyl-Phe-oxazolone, 0.766; in the series on biotinyl-Trp-oxazolone it was 0.843; in the series with biotinyl-Met-oxazolone, 1.33.

As to “AUUAACCUAGGUGAUCGGGUG [Fam2.2 aminoacylation ribozyme variant]”, the self-aminoacylation was 2.1 in the series with biotinyl-Val-oxazolone; 2.31 with biotinyl-Ile-oxazolone; 3.63 in the series on biotinyl-Leu-oxazolone; 8.95 in the series with biotinyl-Phe-oxazolone; 2.9 in the series with biotinyl-Trp-oxazolone; 3.25 in the series on biotinyl-Met-oxazolone.

For the sequence “AAAUUUGCUAAUAGUUGCAAG [Fam3.1 aminoacylation ribozyme variant]”, the self-aminoacylation with biotinyl-Val-oxazolone was 1.21; in the series with biotinyl-Ile-oxazolone it was 1.61; in the series on biotinyl-Leu-oxazolone it was 1.08; in the series with biotinyl-Phe-oxazolone, 1.44; in the series with biotinyl-Trp-oxazolone, 1.71; with biotinyl-Met-oxazolone, 1.24.

As to “CUACUUCAAACAAUCGGCCUC [Fam1A.1 aminoacylation ribozyme variant]”, the self-aminoacylation with biotinyl-Val-oxazolone turned out to be 1.88; with biotinyl-Ile-oxazolone, 1.8; in the series on biotinyl-Leu-oxazolone, 1.89; in the series on biotinyl-Phe-oxazolone it was 11.8; with biotinyl-Trp-oxazolone, 7.78; in the series on biotinyl-Met-oxazolone, 1.63.

Turning to “CCACACUUCAAGUAAUCCGUC [Fam1B.1 aminoacylation ribozyme variant]”, the self-aminoacylation turned out to be 1.06 with biotinyl-Val-oxazolone; 1.06 in the series with biotinyl-Ile-oxazolone; 0.839 with biotinyl-Leu-oxazolone; 0.9 in the series with biotinyl-Phe-oxazolone; 1.16 with biotinyl-Trp-oxazolone; 1.1 in the series on biotinyl-Met-oxazolone.

As to “CCAAACUUCAAGCCAUCGGUC [Fam1B.1 aminoacylation ribozyme variant]”, the self-aminoacylation with biotinyl-Val-oxazolone stood at 1.18; in the series on biotinyl-Ile-oxazolone, 1.15; in the series on biotinyl-Leu-oxazolone, 1.03; in the series with biotinyl-Phe-oxazolone, 1.07; with biotinyl-Trp-oxazolone, 1.01; in the series on biotinyl-Met-oxazolone, 1.28.

As for “UUUCACCUACGUCAUCGGGUG [Fam2.2 aminoacylation ribozyme variant]”, the self-aminoacylation in the series with biotinyl-Val-oxazolone was 3.3; in the series with biotinyl-Ile-oxazolone, 2.88; in the series with biotinyl-Leu-oxazolone, 5.75; with biotinyl-Phe-oxazolone it was 31.6; in the series with biotinyl-Trp-oxazolone, 4.58; in the series on biotinyl-Met-oxazolone it was 4.85.

As to “AAGUUCACUAAUAGUCGCAAG [Fam3.1 aminoacylation ribozyme variant]”, the self-aminoacylation worked out at 1.86 in the series on biotinyl-Val-oxazolone; 1.96 with biotinyl-Ile-oxazolone; 1.8 in the series with biotinyl-Leu-oxazolone; 2.72 in the series with biotinyl-Phe-oxazolone; 2.23 with biotinyl-Trp-oxazolone; 1.37 with biotinyl-Met-oxazolone.

As for “AAGUUUUCUAAUAGUAGCAAG [Fam3.1 aminoacylation ribozyme variant]”, the self-aminoacylation with biotinyl-Val-oxazolone is 1.34; with biotinyl-Ile-oxazolone, 1.5; with biotinyl-Leu-oxazolone it was 1.33; in the series with biotinyl-Phe-oxazolone, 2.5; in the series with biotinyl-Trp-oxazolone it was 1.8; with biotinyl-Met-oxazolone, 1.29.
